Substitutions are numbered along the chain they refer to.
B1: 3C6 (antibody, V domains shown)
VH: EVQLQQSGPELVKPGASVKIPCKASGYTFTDYNMDWVKQSHGESLEWIGDIYPNNGGTIYNQKFKDKATLTVDKSSSTAYMELRSLTSEDNAVYYCARKTGTGFDYWGQGTTLTVSS
VL: QIVLSQSPAILSASPGEKVTMTCRARSSVIYMHWYQQKPGSSPKPWIYATFNLASGVPARFSGSGSGTSYSLTISRVEAEDAATYYCQQWSSNPPTFGSGTKLEIKR
notes: Entries as printed include a leader and part of the constant region; also called anti-TSG-6 antibody 3C6
B2: 3E4 (antibody, V domains shown)
VH: QVQLQQPGAELVKPGASVKLSCKASGYTFTSQWMHWVKQRPGQGLEWIGMIHPNSGSTNNNEKFKSKATLTVDKSSSTAYMQLSSLTSEDSAVYYCTRWAMDYWGQGTSVTASS
VL: DVVMTQTPLSLPVSLGDLASISCRSSQSLVHSNGNTYLHWYLQKPGQSPKLLIFKVSNRFSGVPDRFSGSGSGTDFTLKISRVEAEDLGVYFCSQSTHVPWTFGGGTKLEIKR
notes: Entries as printed include a leader and part of the constant region
B3: 4F1 (antibody, V domains shown)
VH: EVKLVESGGGLVQPGGSLSLSCAASGFTFTDYYMSWVRQPPGKALEWLGFIRHKAKGYTAEYSASVKGRFTISRDNSQSILYLQMNALRAEDSATYYCARLYYYGSPHWYFDVWGTGTTVTVSS
VL: QIVLTQSPAIMSASPGEKVTMTCSASSSVSYMHWYQQKSGTSPKRWIYDTSKLASGVPARFSGSGSGTSYSLTISSMEAEDAATYYCQQWSSNPPTFGSGTELEIKR
notes: as for B2
B4: anti-TSG-6 antibody of SEQ ID NO: 1 and SEQ ID NO: 2 (first entry of Table 1, clone name not printed) (antibody, IgG1, V domains shown)
VH: QVRLQQSGAELAKPGASVKLSCKASGYTFTSYWMHWVKQRPGQGLEWIGYIIPSSGYTKNKQNFKDKATLTADKSSSTAYMQLSNLTYEDSAVYSCARSDGSYPYYFDYWGQGTTLTVSS
VL: ENVLTQSPAIMSASPGEKVTMTCSASSSVSYMHWYQQKSSTSPKLWIYDTSKLASGVPGRFSGSGSGNSYSLTISSMEAEDVATYYCFQGSGYPLTFGSGTKLEIKR
B5: 3E1 (antibody, V domains shown)
VH: QVQLQQSGAELAKPGASVRLSCQASGYTFTSYWMHWVKQRPRQGLEWIGYIIPSSGYTKCHQKFKDKATLTADKSSSTAYMQLSSLTYEDSAVYYCARSTSGYPYYFDSWGQGTTLTVSS
VL: B4 VL with K18R, S26T, Y31F, G92W, S99A, I105L
notes: as for B2
B6: 5A5 (antibody, V domains shown)
VH: B5 VH with S31T, T58S, S77N, Y80S, S109Y
VL: B4 VL with S26T, G92W, S99A, I105L
notes: as for B2
B7: 5B4 (antibody, V domains shown)
VH: QVQLQQPGAELVKPGASVKLSCKASDYTFTNYWMHWVKQRPGRGLEWIGRIDPSSGGAKYNEKFKSKATLTVDKPSSTAYMEFSSLTSEDSAVYYCVRSRYDYDGWFAYWGLGTLVTVSA
VL: DIVMTQAAPSVPVTPGESVSISCRSSKSLLHSNGNTYLYWFLQRPGQSPQLLIYRMSNLASGVPDRFSGSGSGTAFTLRISRVEAEDVGVYYCMQHLEYPFTFGGGTKLEIKR
notes: Its printed constant part differs from that of the other IgG1 entries; Entries as printed include a leader and part of the constant region
B8: 5D9 (antibody, V domains shown)
VH: QVQLQQSGAELARPGASVKLSCKASDDTFINYGINWVKQRTGQGLEWIGETFPSNGNTFYNEKFKGKATLTADRSSSTTYMELRSLTSEDAAVYFCARHSNLPYFDHWGQGSTLTVSS
VL: DIVMTQSPSSLSVSAGEKVTMSCKSSQSLLNSGNQKNYLAWYQQKPGQPPKLLIYGASTRESGVPERFTGSGSGTDFTLTISSVQAEDLAVYYCQNDHSYPFTFGGGTNLEIKR
notes: as for B2
B9: 1A9 (antibody, V domains shown)
VH: EVQLQQSGPELVKPGASVKISCKASGYTFTDYYMNWVKQSHEKSLEWIGDINPNNGGTSYNQKFMGKATLTVDKSSRTAYMELRSLTSEDSTVYYCARWGIYDRFTYWGQGTLVSVSA
VL: DIKMTQSPSSMYASLGERVTIACKASQDINSFLSWFQQKPGKSPKTLIYRANRLVDGVPSRFSGSGSGQDYSLTISSLEYEDMGIYYCLQYDEFPLTFGAGTKLELKR
notes: as for B2
B10: 1D7 (antibody, V domains shown)
VH: B9 VH with E42G, S59T, M65K, R77S, T92A, Y102F, L113V, S115T
VL: B9 VL with L15R, A22T
notes: as for B2
B11: 4E4 (antibody, V domains shown)
VH: QVQLQQPGAELVKPGASVKLSCKASGYTFTSYWMHWVKQRPGQGLEWIGMIHPNSGSTNYNEKFKNKATLTVDKSSSTAYMQLSSLTSEDSAVYYCAPRMFDDYDDYWGQGTTLTVSS
VL: QIVLTQSPAIMSASLGERVTMTCTASSSVSSSYLHWYQQKPGSSPKLWIYSTSNLASGVPVRFSGSGSGTSYSLTISRMEAEDAATYYCHHYHRSPYTFGGGTKLEIKR
notes: as for B2

Each binder was assayed against T1, Recombinant mouse TSG-6 (R&D Biosystems, catalog #2326-TS) (mouse, UniProt O08859 18-275) (assay: hybridoma raised against mouse TSG-6; clone selection by ELISA).
T1 construct: Bought protein, used KLH-coupled as the immunogen; also called mTSG-6
Experimental: (§1) Mouse antibodies directed against mouse TSG-6 protein (mTSG-6) were generated using conventional mouse monoclonal antibody techniques. Briefly, mice (strain SJL/J) were inoculated with KLH-coupled recombinant mouse TSG-6 (R&D Biosystems, catalog #2326-TS). After boosting, antibody titers were determined by ELISA, using a non-relevant His6-tagged protein as a control. Mice selected for fusion were sacrificed and hybridoma fusion was performed using the P3X63Ag8.653 murine myeloma cell line as a fusion partner. Clones were isolated by limiting dilution and selected by ELISA of hybridoma supernatants. Recombinant human TSG-6 (R&D Biosystems, catalog #2104-TS) was used as a substrate for ELISA assays thus facilitating the selection of human- and mouse-cross reactive clones (the two proteins are 92% identical at the amino acid level). Hybridoma mRNA was transcribed to cDNA and amplified by 5′-rapid amplification of cDNA ends (RACE). PCR products were cloned into an appropriate sequencing vector and sequenced by the dideoxy Sanger method. Multiple copies were sequenced to verify the clonality of each clone. Translated protein sequences were entered into the NCBI IgBLAST search tool (Ye, J., et al., 2013, Nucleic Acids Res. 41, W34-40) to identify CDRs.

T1 sequence (O08859 18-275 limits assumed): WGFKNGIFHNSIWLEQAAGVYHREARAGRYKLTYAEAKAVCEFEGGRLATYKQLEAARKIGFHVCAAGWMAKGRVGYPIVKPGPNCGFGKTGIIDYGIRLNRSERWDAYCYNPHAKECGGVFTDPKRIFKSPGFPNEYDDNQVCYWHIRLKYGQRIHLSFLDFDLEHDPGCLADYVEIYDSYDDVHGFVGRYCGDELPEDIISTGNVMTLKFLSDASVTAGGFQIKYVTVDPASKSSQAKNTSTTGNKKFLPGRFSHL

Binding result, binds:
B1
B2
B3
B4
B5
B6
B7
B8
B9
B10
B11

What follows are binders tested against T2, Recombinant human TSG-6 (R&D Biosystems, catalog #2104-TS) (human, UniProt P98066 18-277) (assay: ELISA of hybridoma supernatants on recombinant human TSG-6).
T2 construct: Bought protein; also called hTSG-6; Tumor necrosis factor-inducible gene 6 protein
Experimental: as §1

T2 sequence (P98066 18-277 limits assumed): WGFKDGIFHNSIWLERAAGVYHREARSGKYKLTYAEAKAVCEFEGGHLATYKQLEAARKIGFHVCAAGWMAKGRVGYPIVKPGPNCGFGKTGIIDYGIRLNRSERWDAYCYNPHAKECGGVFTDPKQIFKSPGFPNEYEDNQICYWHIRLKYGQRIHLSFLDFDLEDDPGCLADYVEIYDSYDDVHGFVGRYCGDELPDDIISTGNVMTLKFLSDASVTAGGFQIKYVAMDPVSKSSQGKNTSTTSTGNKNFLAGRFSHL

Binding result, binds:
B1
B2
B3
B4
B5
B6
B7
B8
B9
B10
B11

— patent US20220153834A1 (UNIVERSITY HEALTH NETWORK, published 2022)
